From paper PMC5777261 (The Journal of Biological Chemistry, 2017)

Experiments:
Experiment in all cases: radioligand binding; HEK293 cells expressing ACKR3-YFP or mutants, pretreated 5 min at 37 °C with 100 μM phenylarsine oxide; 50 pM 125I-CXCL12 tracer in 50 mM HEPES pH 7.4, 5 mM MgCl2, 1 mM CaCl2, 0.2% BSA, with or without unlabeled CXCL12 or CXCL11, 30 min at 37 °C; bound label counted in a γ counter; IC50 taken as proxy for ligand affinity
Settings in all cases: one partner purified
[1] = target: T1, ACKR3-YFP (wildtype ACKR3 fused C-terminally to YFP) (UniProt P25106 1-362)
T1 construct: atypical chemokine receptor 3 (ACKR3, also known as CXCR7); also called CXCR7; receptor-YFP fusion; source: HEK293, transiently transfected (polyethyleneimine), on or in cells; not shown: YFP, C-terminal, kept

ACKR3 D90N-YFP = target: T2, ACKR3 D90N-YFP (UniProt P25106 1-362, D90N)
T2 construct: ACKR3 (CXCR7) with D90N (Ballesteros-Weinstein 2.50), made by PCR in ACKR3-YFP; also called D90^2.50N; source: HEK293, transiently transfected (polyethyleneimine), on or in cells; not shown: YFP, C-terminal, kept

ACKR3 N127D-YFP = target: T3, ACKR3 N127D-YFP (UniProt P25106 1-362, N127D)
T3 construct: ACKR3 (CXCR7) with N127D (Ballesteros-Weinstein 3.35), made by PCR in ACKR3-YFP; also called N127^3.35D; source: HEK293, transiently transfected (polyethyleneimine), on or in cells; not shown: YFP, C-terminal, kept

ACKR3 N127K-YFP = target: T4, ACKR3 N127K-YFP (UniProt P25106 1-362, N127K)
T4 construct: ACKR3 (CXCR7) with N127K (Ballesteros-Weinstein 3.35), made by PCR in ACKR3-YFP; also called N127^3.35K; source: HEK293, transiently transfected (polyethyleneimine), on or in cells; not shown: YFP, C-terminal, kept

ACKR3 N127S-YFP = target: T5, ACKR3 N127S-YFP (UniProt P25106 1-362, N127S)
T5 construct: ACKR3 (CXCR7) with N127S (Ballesteros-Weinstein 3.35), made by PCR in ACKR3-YFP; also called N127^3.35S; source: HEK293, transiently transfected (polyethyleneimine), on or in cells; not shown: YFP, C-terminal, kept

ACKR3 D141N-YFP = target: T6, ACKR3 D141N-YFP (UniProt P25106 1-362, D141N)
T6 construct: ACKR3 (CXCR7) with D141N (Ballesteros-Weinstein 3.49), made by PCR in ACKR3-YFP; also called D141^3.49N; source: HEK293, transiently transfected (polyethyleneimine), on or in cells; not shown: YFP, C-terminal, kept

ACKR3 R142A-YFP = target: T7, ACKR3 R142A-YFP (UniProt P25106 1-362, R142A)
T7 construct: ACKR3 (CXCR7) with R142A (Ballesteros-Weinstein 3.50), made by PCR in ACKR3-YFP; also called R142^3.50A; ACKR3 R142^3.50A; source: HEK293, transiently transfected (polyethyleneimine), on or in cells; not shown: YFP, C-terminal, kept

ACKR3 Y143A-YFP = target: T8, ACKR3 Y143A-YFP (UniProt P25106 1-362, Y143A)
T8 construct: ACKR3 (CXCR7) with Y143A (Ballesteros-Weinstein 3.51), made by PCR in ACKR3-YFP; also called Y143^3.51A; source: HEK293, transiently transfected (polyethyleneimine), on or in cells; not shown: YFP, C-terminal, kept

ACKR3 Y315A-YFP = target: T9, ACKR3 Y315A-YFP (UniProt P25106 1-362, Y315A)
T9 construct: ACKR3 (CXCR7) with Y315A (Ballesteros-Weinstein 7.53), made by PCR in ACKR3-YFP; also called Y315^7.53A; source: HEK293, transiently transfected (polyethyleneimine), on or in cells; not shown: YFP, C-terminal, kept
T9 sequence (P25106 whole entry Y315A): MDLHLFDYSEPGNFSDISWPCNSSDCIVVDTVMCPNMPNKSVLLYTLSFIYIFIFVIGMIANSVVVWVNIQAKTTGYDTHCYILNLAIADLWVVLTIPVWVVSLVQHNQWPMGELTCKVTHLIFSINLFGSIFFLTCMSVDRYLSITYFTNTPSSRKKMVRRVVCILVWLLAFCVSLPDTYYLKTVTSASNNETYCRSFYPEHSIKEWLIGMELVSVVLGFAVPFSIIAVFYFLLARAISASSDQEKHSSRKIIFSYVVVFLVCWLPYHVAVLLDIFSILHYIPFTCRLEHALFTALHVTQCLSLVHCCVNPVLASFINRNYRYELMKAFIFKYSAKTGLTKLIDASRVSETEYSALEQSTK

T6 sequence (P25106 whole entry D141N): as the sequence (P25106 whole entry Y315A) above, with D141N, A315Y counted along it
T4 sequence (P25106 whole entry N127K): as the sequence (P25106 whole entry Y315A) above, with N127K, A315Y counted along it
T5 sequence (P25106 whole entry N127S): as the sequence (P25106 whole entry Y315A) above, with N127S, A315Y counted along it
T8 sequence (P25106 whole entry Y143A): as the sequence (P25106 whole entry Y315A) above, with Y143A, A315Y counted along it
T3 sequence (P25106 whole entry N127D): as the sequence (P25106 whole entry Y315A) above, with N127D, A315Y counted along it
T2 sequence (P25106 whole entry D90N): as the sequence (P25106 whole entry Y315A) above, with D90N, A315Y counted along it
T1 sequence (P25106 whole entry, the tested form may be a part): as the sequence (P25106 whole entry Y315A) above, with A315Y counted along it
T7 sequence (P25106 whole entry R142A): as the sequence (P25106 whole entry Y315A) above, with R142A, A315Y counted along it

IC50 [1]: 39.1 nM | Log IC50 [1]: -7.4 | IC50 (ACKR3 D90N-YFP): 35.9 nM | Log IC50 (ACKR3 D90N-YFP): -7.5 | IC50 (ACKR3 N127D-YFP): 6.6 nM | Log IC50 (ACKR3 N127D-YFP): -8 | IC50 (ACKR3 N127K-YFP): 11 nM | Log IC50 (ACKR3 N127K-YFP): -7.9 | IC50 (ACKR3 N127S-YFP): 3.7 nM | Log IC50 (ACKR3 N127S-YFP): -8.5 | IC50 (ACKR3 D141N-YFP): 4.8 nM | Log IC50 (ACKR3 D141N-YFP): -8.3 | IC50 (ACKR3 R142A-YFP): 44.8 nM | Log IC50 (ACKR3 R142A-YFP): -7.4 | IC50 (ACKR3 Y143A-YFP): 15.4 nM | Log IC50 (ACKR3 Y143A-YFP): -7.8 | IC50 (ACKR3 Y315A-YFP): 19.1 nM | Log IC50 (ACKR3 Y315A-YFP): -7.7
B1: CXCL11 (unlabeled recombinant chemokine) (ligand, human, UniProt O14625 22-94, looked up)
chain: FPMFKRGRCLCIGPGVKAVKVADIEKASIMYPSNNCDKIEVIITLKENKGQRCLNPKSKQARLIIKKVERKNF
notes: chemokine CXCL11 (I-TAC); called human CXCL11 in the text on scavenging by MEFs; also called I-TAC; unlabeled CXCL11; source: recombinant; gift from Amanda Nevins and Brian Volkman or from PeproTech Inc
